Measurements reported in patent US7799901B2, “Modulators of the function of FAS receptors and other proteins” (Yeda Research and Development Co. Ltd., priority 1995, dated 2010).

B1: MACHα1 (C360S): MACHα1 mutant in which the catalytic cysteine Cys360 is replaced by Ser (protein)
chain: MDFSRNLYDIGEQLDSEDLASLKFLSLDYIPQRKQEPIKDALMLFQRLQEKRMLEESNLSFLKELLFRINRLDLLITYLNTRKEEMERELQTPGRAQISAYRVMLYQISEEVSRSELRSFKFLLQEEISKCKLDDDMNLLDIFIEMEKRVILGEGKLDILKRVCAQINKSLLKIINDYEEFSKERSSSLEGSPDEFSNGEELCGVMTISDSPREQDSESQTLDKVYQMKSKPRGYCLIINNHNFAKAREKVPKLHSIRDRNGTHLDAGALTTTFEELHFEIKPHDDCTVEQIYEILKIYQLMDHSNMDCFICCILSHGDKGIIYGTDGQEAPIYELTSQFTGLKCPSLAGKPKVFFIQASQGDNYQKGIPVETDSEEQPYLEMDLSSPQTRYIPDEADFLLGMATVNNCVSYRNPAEGTWYIQSLCQSLRERCPRGDDILTILTEVNYEVSNKDDKKNMGKQMPQPTFTLRKKLVFPSD
B2: MACHβ1: MACH isoform, cDNA SEQ ID NO: 4, amino acid SEQ ID NO: 5; lacks the CED3/ICE homology region (protein)
chain: MDFSRNLYDIGEQLDSEDLASLKFLSLDYIPQRKQEPIKDALMLFQRLQEKRMLEESNLSFLKELLFRINRLDLLITYLNTRKEEMERELQTPGRAQISAYRVMLYQISEEVSRSELRSFKFLLQEEISKCKLDDDMNLLDIFIEMEKRVILGEGKLDILKRVCAQINKSLLKIINDYEEFSKERSSSLEGSPDEFSNDFGQSLPNEKQTSGILSDHQQSQFCKSTGESAQTSQH

How the values were obtained:
MACHα1 = target: T1, MACHα1 (Homo sapiens, UniProt Q14790); assay: Two-hybrid β-galactosidase filter assay (FIG. 5), binding to MACHα1; conditions: two hybrid test
T1 construct: expressed in transfected cells; host or cells: SFY526 yeast
Procedure: In FIG. 5, there is shown the results of the interaction of MORT-1 and MACH within transfected yeast cells. Briefly, MORT-1 and MACHβ1 and their deletion constructs, as well as MACHα1, a MACHα1 mutant in which the catalytic cysteine Cys360 is replaced by Ser (MACHα1 (C360S)) and the intracellular domain of human FAS-R (Fas-IC), were expressed within transfected SFY526 yeast in Gal4 DNA binding domain and activation domain constructs (pGBT9 and pGAD-GH). Their interaction was assessed by a β-galactosidase expression filter assay as described in Boldin et al (1995b). The results are presented in terms of the time required for the development of strong color. […] None of the inserts examined interacted with a number of tested negative controls, including the intracellular domains of human p55 TNF receptor, p75 TNF receptor and CD40, and lamin, cyclin D and ‘empty’ Gal4 vectors. MACHβ1 was cloned by two hybrid screening of a Gal4 AD-tagged human B cell library (Durfee et al, 1993) for proteins that bind to MORT-1, using the HF7c Yeast reporter strain. Except where otherwise indicated, all experimental procedures for the findings presented are as described above (see also Boldin et al, 1995). […] MACHβ1 also self-associated in the transfected yeast. […] Expression of MACHβ1 molecules in mammalian cells yielded a 34 kDa protein that bound to MORT-1 molecules co-expressed with it. […]

[1] = test system: breast carcinoma MCF7 cells; assay: Cell death on overexpression of MACH isoforms in MCF7 cells; assay type: cell-based, human; conditions: β-galactosidase-expressing cells with apoptopic morphology, 20 h after transfection
Procedure: To explore the involvement of MACH in cell-death induction, the effect of overexpression of various MACH isoforms on cell viability was examined. The test was performed by transfecting MACH expression vectors together with a β-galactosidase expression vector as a transfection marker into human embryonic kidney 293-EBNA cells and breast carcinoma MCF7 cells.
In brief, 293-EBNA cells, MCF7 human breast carcinoma cells and HeLa HtTA-1 cells were grown in Dulbecco's modified Eagle's minimal essential medium supplemented with 10% fetal calf serum, nonessential amino acids, 100 U/ml penicillin and 100 μg/ml streptomycin. Cell tissue culture dishes (5×10^5 293-EBNA cells, 3×10^5 s MCF7 cells or 3×10^5 HeLa cells in 6-cm dishes) were transiently transfected, using the calcium phosphate precipitation method, with the cDNAs of the indicated proteins together with the β-galactosidase expression vector. In the experiments presented in FIGS. 14A-D and 15, each dish was transfected with 3.5 μg of the indicated MACH construct and 1.5 μg of pSV-β-gal. In the experiments presented in FIGS. 16A-D and 17-19, each dish was transfected with 2.5 μg of the indicated MACH or MORT1 construct (or, as control, empty vector) and 1.5 μg of pSV-β-gal. The cells were rinsed 6 to 10 h after transfection. The 293-EBNA and MCF7 cells were incubated for a further 18 h without additional treatment. The HeLa cells were incubated for 26 h after transfection and-then for 5 h in the presence of either anti-Fas.APO1 antibody (CH11, 0.5 μg/ml) or TNF (100 ng/ml), together with cycloheximide (10 μg/ml). The extent of cell death at the end of the incubation periods was assessed by determination of β-galactosidase expression, as described by Kumar et al, 1994.
In particular, FIGS. 14A-D show the morphology of human embryonic kidney 293-EBNA cells transiently expressing the indicated MACH isoforms. The arrows (FIG. 14B) point to apoptopic cells. Photographs were taken 26 h after transfection. […] Data are from three independent experiments with the 293-EBNA cells and two independent experiments with the MCF7 cells.

T1 sequence (Q14790 217-479): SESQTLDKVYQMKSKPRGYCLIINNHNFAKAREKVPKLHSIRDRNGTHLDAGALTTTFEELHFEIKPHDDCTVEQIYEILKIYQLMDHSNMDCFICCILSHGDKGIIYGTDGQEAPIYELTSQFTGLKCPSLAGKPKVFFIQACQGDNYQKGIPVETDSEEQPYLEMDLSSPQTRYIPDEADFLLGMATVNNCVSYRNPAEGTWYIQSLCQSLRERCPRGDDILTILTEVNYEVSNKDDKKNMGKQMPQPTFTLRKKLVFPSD

Molecule	binding to MACHα1 in transfected yeast (self-interaction) (MACHα1)	cell death of transfected MCF7 cells [1]
MACHα1: MACH isoform, cDNA SEQ ID NO: 14, amino acid SEQ ID NO: 7; contains CED3/ICE homology region	did not exhibit self-interaction	–
B1	–	No death
B2	–	some slight cell death
